Measurements as given in patent publication US12428633B2, “Inducible dimerization of recombinases” (TRUSTEES OF BOSTON UNIVERSITY, priority 2016, dated 2025).
Entries after “also recorded” stand apart in the source; their conditions may differ.

What was measured:
[1] = test system: 2-input BLADE decoder in HEK293FT cells; experiment: 4OHT- and ABA-inducible 2-input BLADE decoder; type: cell-based, human; settings: transient transfection, 4OHT 1 μM, ABA 100 μM
Method: DNA was transfected into the human embryonic kidney cell line (HEK293FT) using a polyethylenimine (PEI) protocol. Cells were plated onto 48-(2504) or 96-well (1004) plates the day prior to transfection (200,000 cells/mL), such that the cells were 50-70% confluent the day of transfection. Cells were kept in a humidified incubator at 37° C. and 5% CO2 and maintained in DMEM medium (Corning) with 10% Heat Inactivated Fetal Bovine Serum (Life Technologies), 50 U.I./mL penicillin/50 μg/mL streptomycin (Corning), 2 mM glutamine (Corning) and 1 mM sodium pyruvate (Lonza). PEI stocks were made from linear polyethylenimine (Polysciences 23966-2) and were dissolved at a concentration of 0.323 g/L in deionized water with the assistance of concentrated hydrochloric acid and sodium hydroxide and then filtered sterilized (0.24 μm). PEI stocks were stored at −80° C. until use and warmed to room temperature prior to usage. […]
(§1) Two days post-transfection and after trypsinization (0.05% Trypsin/0.53 mM EDTA, Corning) and resuspension, all HEK293FT cell populations were analyzed using a Becton Dickinson (BD) LSRFortessa SORP flow cytometer with HTS, except for data in FIG. 5, which were recorded on a BD LSRII. Time-course data was achieved through trypsinization and fixation of cells at particular time points (BD Cytofix) and kept at 4° C. until analyzed through flow cytometry. […]

[2] = test system: BUF logic reporters in HEK293FT; experiment: Recombinase activity, orthogonality and cross-reactivity on BUF logic reporters; type: cell-based, human; settings: transient transfection, dose-response (FIG. 8)
Method: FIG. 8A-8C show recombinase cross-reactivity dose-response profile of Cre, Dre, VCre and Vika. FIG. 8A is a summary of intended and unintended recombination of Cre, Dre, VCre and Vika site-specific recombinases.
DNA was transfected into the human embryonic kidney cell line (HEK293FT) using a polyethylenimine (PEI) protocol. Cells were plated onto 48-(2504) or 96-well (1004) plates the day prior to transfection (200,000 cells/mL), such that the cells were 50-70% confluent the day of transfection. Cells were kept in a humidified incubator at 37° C. and 5% CO2 and maintained in DMEM medium (Corning) with 10% Heat Inactivated Fetal Bovine Serum (Life Technologies), 50 U.I./mL penicillin/50 μg/mL streptomycin (Corning), 2 mM glutamine (Corning) and 1 mM sodium pyruvate (Lonza). […]
as §1

Molecule	Leaky recombinase behavior on 2-input BLADE decoder [1]	Cross-reactivity on other recombinases' reporter constructs [2]
split Flp system: split Flp recombinase construct fused to ABA-binding domains ABI and PYL (SEQ ID NO: 38 and 39) (protein) chain 1: MSQFDILCKTPPKVLVRQFVERFERPSGEKIASCAAELTYLCWMITHNGTAIKRATFMSYNTIISNSLSFDIVNKSLQFKYKTQKATILEASLKKLIPAWEFTIIPYNGQKHQSDITDIVSSLQLQFESSEEADKGNSHSKKMLKALLSEGESIWEITEKILNSFEYTSRFTKTKTLYQFLFLATFINCGRFSDIKNVDPKSFKLVQNKYLGVIIQCLVTETKTSVSRHIYFFSARGRIDPLVYLDEFLRNSEPVLKRVNRTGNSSSNKQEYQLLKDNLVRSYNKALKKNAPYPIFAIKNGPKSHIGRHLMTSFLSMKGLTELTNVVGNWSDKRASAVARTTYTHQITAIPDHYFALVSRYYAYDPISKEMIALKDETNPIEEWQHIEQLKGSAEGSGGSGSGSSGGSGTPLYGFTSICGRRPEMEDAVSTIPRFLQSSSGSMLDGRFDPQSAAHFFGVYDGHGGSQVANYCRERMHLALAEEIAKEKPMLCDGDTWLEKWKKALFNSFLRVDSEIGSVAPETVGSTSVVAVVFPSHIFVANCGDSRAVLCRGKTALPLSVDHKPDREDEAARIEAAGGKVIQWNGARVFGVLAMSRSIGDRYLKPSIIPDPEVTAVKRVKEDDCLILASDGVWDVMTDEEACEMARKRILLWHKKNAVAGDASLLADERRKEGKDPAAMSAAEYLSKLAIQRGSKDNISVVVVDLKDYKDDDDKPKKKRKV chain 2: MAPTQDEFTQLSQSIAEFHTYQLGNGRCSSLLAQRIHAPPETVWSVVRRFDRPQIYKHFIKSCNVSEDFEMRVGCTRDVNVISGLPANTSRERLDLLDDDRRVTGFSITGGEHRLRNYKSVTTVHRFEKEEEEERIWTVVLESYVVDVPEGNSEEDTRLFADTVIRLNLQKLASITEAMNYPYDVPDYASGGSGSGSSGGSGTSIRYPAWNGIISQEVLDYLSSYINRRIPKKKRKV	minimal leaky recombinase behavior	–
Cre: full-length tyrosine recombinase, recognizes loxP (protein) MSNLLTVHQNLPALPVDATSDEVRKNLMDMFRDRQAFSEHTWKMLLSVCRSWAAWCKLNNRKWFPAEPEDVRDYLLYLQARGLAVKTIQQHLGQLNMLHRRSGLPRPSDSNAVSLVMRRIRKENVDAGERAKQALAFERTDFDQVRSLMENSDRCQDIRNLAFLGIAYNTLLRIAEIARIRVKDISRTDGGRMLIHIGRTKTLVSTAGVEKALSLGVTKLVERWISVSGVADDPNNYLFCRVRKNGVAAPSATSQLSTRALEGIFEATHRLIYGAKDDSGQRYLAWSGHSARVGAARDMARAGVSIPEIMQAGGWTNVNIVMNYIRNLDSETGAMVRLLEDGD	–	showed cross-reactivity in a dose-dependent manner; also recorded: mutually cross-reactive
VCre: full-length tyrosine recombinase (SEQ ID NO: 16), recognizes VloxP (protein) MIENQLSLLGDFSGVRPDDVKTAIQAAQKKGINVAENEQFKAAFEHLLNEFKKREERYSPNTLRRLESAWTCFVDWCLANHRHSLPATPDTVEAFFIERAEELHRNTLSVYRWAISRVHRVAGCPDPCLDIYVEDRLKAIARKKVREGEAVKQASPFNEQHLLKLTSLWYRSDKLLLRRNLALLAVAYESMLRASELANIRVSDMELAGDGTAILTIPITKTNHSGEPDTCILSQDVVSLLMDYTEAGKLDMSSDGFLFVGVSKHNTCIKPKKDKQTGEVLHKPITTKTVEGVFYSAWETLDLGRQGVKPFTAHSARVGAAQDLLKKGYNTLQIQQSGRWSSGAMVARYGRAILARDGAMAHSRVKTRSAPMQWGKDEKD	–	showed cross-reactivity in a dose-dependent manner; also recorded: can recombine Vika's recombination sites
